From PMC4051775, “Intestinal Cell Barrier Function In Vitro Is Severely Compromised by Keratin 8 and 18 Mutations Identified in Patients with Inflammatory Bowel Disease” (PLoS ONE, 2014)
Residue numbers refer to the chain shown, from its start. Names may count otherwise.

T1: keratin 8 wild type recombinant protein (human, UniProt P05787 1-483)
T1 construct: keratin 8 (K8), wild type, recombinant protein; also called K8 WT; K8
T1 sequence (looked up): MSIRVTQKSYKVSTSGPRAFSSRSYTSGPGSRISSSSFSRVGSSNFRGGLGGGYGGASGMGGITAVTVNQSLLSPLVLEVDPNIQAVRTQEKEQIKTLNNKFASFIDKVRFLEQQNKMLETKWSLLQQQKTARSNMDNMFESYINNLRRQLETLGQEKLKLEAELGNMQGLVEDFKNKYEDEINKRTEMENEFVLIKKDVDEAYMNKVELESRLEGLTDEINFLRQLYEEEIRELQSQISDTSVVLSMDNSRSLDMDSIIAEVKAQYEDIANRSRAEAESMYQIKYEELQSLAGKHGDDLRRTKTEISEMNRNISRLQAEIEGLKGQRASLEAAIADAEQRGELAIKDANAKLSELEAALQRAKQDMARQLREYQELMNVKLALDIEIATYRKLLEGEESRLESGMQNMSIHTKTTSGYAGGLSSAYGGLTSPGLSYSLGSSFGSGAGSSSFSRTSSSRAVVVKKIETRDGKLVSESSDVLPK

T2: keratin 8 G62C recombinant protein (human, UniProt P05787 1-483, G62C)
T2 construct: keratin 8 (K8) with the IBD patient mutation G62C, recombinant protein; The mutation was found in IBD patients; also called K8 G62C
T2 sequence (looked up): T1 sequence (looked up) with G62C

T3: keratin 8 K464N recombinant protein (human, UniProt P05787 1-483, K464N)
T3 construct: keratin 8 (K8) with the IBD patient mutation K464N, recombinant protein; The mutation was found in IBD patients; also called K8 K464N
T3 sequence (looked up): T1 sequence (looked up) with K464N

B1: keratin 18 wild type recombinant protein (natural protein, human, UniProt P05783 1-430, looked up)
chain: MSFTTRSTFSTNYRSLGSVQAPSYGARPVSSAASVYAGAGGSGSRISVSRSTSFRGGMGSGGLATGIAGGLAGMGGIQNEKETMQSLNDRLASYLDRVRSLETENRRLESKIREHLEKKGPQVRDWSHYFKIIEDLRAQIFANTVDNARIVLQIDNARLAADDFRVKYETELAMRQSVENDIHGLRKVIDDTNITRLQLETEIEALKEELLFMKKNHEEEVKGLQAQIASSGLTVEVDAPKSQDLAKIMADIRAQYDELARKNREELDKYWSQQIEESTTVVTTQSAEVGAAETTLTELRRTVQSLEIDLDSMRNLKASLENSLREVEARYALQMEQLNGILLHLESELAQTRAEGQRQAQEYEALLNIKVKLEAEIATYRRLLEDGEDFNLGDALDSSNSMQTIQKTTTRRIVDGKVVSETNDTKVLRH
notes: keratin 18 (K18), wild type, recombinant protein; also called K18 WT; K18
B2: keratin 18 S230T recombinant protein (natural protein, human, UniProt P05783 1-430, looked up)
chain: B1 chain with S230T
notes: keratin 18 (K18) with the variation S230T found in an IBD patient and in controls, recombinant protein; Natural variant, earlier designated a polymorphism; also called K18 S230T

Legend:
Settings in all cases: both partners purified
[1] = molecular target: T1, keratin 8 wild type recombinant protein; assay: SPR; published SPR data of Owens et al. (ref. 26) re-analysed here with ENZO: Enzyme Kinetics to calculate Kd; monomeric K18 wild type or S230T in solution, wild type K8 immobilised
[2] = molecular target: T2, keratin 8 G62C recombinant protein; assay: SPR; published SPR data of Owens et al. (ref. 26) re-analysed here with ENZO: Enzyme Kinetics to calculate Kd; K8 wild type or mutant in solution, wild type K18 partner immobilised
[3] = molecular target: T3, keratin 8 K464N recombinant protein; assay: as above
[4] = molecular target: T1, keratin 8 wild type recombinant protein; assay: as above

Binder | Kd [1] | Kd [2] | Kd [3] | Kd [4]
B1 | 8.5 nM | 26.2 nM | 13.4 nM | 8.5 nM
B2 | 161 nM |  |  | 
